Reference: patent US20250313636A1 (PARAGON THERAPEUTICS, published 2025)

Assays:
[1] = target: T1, α4β7 integrin expressed on cells (UniProt P13612 34-1032; P26010 20-798, limits assumed); assay: cell-based or functional assay
[2] = target: T2, α4β1 integrin expressed on cells (UniProt P13612 34-1032; P05556 21-798, limits assumed); assay: flow cytometry on Ramos cells
T2 construct: whole, on cells; also called α4β1 on Ramos cells; α4β1 on HuT-78 cells
Procedure: (§1) Antibody binding to α4β7 integrin or α4β1 integrin expressed on cells was determined using FACS and two cell lines. […] The second cell line was Ramos and is known to only express α4β1. Briefly, cells were cultured and harvested according to standard vendor instructions. Cells were stained with purified antibodies at concentrations of 0 nM, 0.0064 nM, 0.032 nM, 0.16 nM, 0.8 nM, 4 nM, 20 nM, and 100 nM and incubated at 4° C. for 1 hour. Cells were subsequently stained with an Alexa Fluor 488-conjugated goat anti-human IgG secondary antibody at a 1:1000 dilution. Cells were incubated 4° C. for 1 hour, protected from light. Cells were then washed and the MFI of cells in each well were recorded by FACS using a flow cytometer. Subsequent data were analyzed using GraphPad Prism. […] On the other hand, an anti-α4 antibody tested binds to both cell lines.

[3] = target: T1, α4β7 integrin expressed on cells; assay: flow cytometry on RPMI-8866 cells (α4β7 only)
Procedure: as §1

[4] = target: T3, recombinant human α4β7 integrin (human, UniProt P13612 34-977; P26010 20-723, limits assumed); assay: SPR, antibody captured on anti-human Fc CM5 chip, recombinant human α4β7 integrin as analyte, 25 °C, 1:1 model
T3 sequence (P13612 34-977 limits assumed, chain 1 of 2): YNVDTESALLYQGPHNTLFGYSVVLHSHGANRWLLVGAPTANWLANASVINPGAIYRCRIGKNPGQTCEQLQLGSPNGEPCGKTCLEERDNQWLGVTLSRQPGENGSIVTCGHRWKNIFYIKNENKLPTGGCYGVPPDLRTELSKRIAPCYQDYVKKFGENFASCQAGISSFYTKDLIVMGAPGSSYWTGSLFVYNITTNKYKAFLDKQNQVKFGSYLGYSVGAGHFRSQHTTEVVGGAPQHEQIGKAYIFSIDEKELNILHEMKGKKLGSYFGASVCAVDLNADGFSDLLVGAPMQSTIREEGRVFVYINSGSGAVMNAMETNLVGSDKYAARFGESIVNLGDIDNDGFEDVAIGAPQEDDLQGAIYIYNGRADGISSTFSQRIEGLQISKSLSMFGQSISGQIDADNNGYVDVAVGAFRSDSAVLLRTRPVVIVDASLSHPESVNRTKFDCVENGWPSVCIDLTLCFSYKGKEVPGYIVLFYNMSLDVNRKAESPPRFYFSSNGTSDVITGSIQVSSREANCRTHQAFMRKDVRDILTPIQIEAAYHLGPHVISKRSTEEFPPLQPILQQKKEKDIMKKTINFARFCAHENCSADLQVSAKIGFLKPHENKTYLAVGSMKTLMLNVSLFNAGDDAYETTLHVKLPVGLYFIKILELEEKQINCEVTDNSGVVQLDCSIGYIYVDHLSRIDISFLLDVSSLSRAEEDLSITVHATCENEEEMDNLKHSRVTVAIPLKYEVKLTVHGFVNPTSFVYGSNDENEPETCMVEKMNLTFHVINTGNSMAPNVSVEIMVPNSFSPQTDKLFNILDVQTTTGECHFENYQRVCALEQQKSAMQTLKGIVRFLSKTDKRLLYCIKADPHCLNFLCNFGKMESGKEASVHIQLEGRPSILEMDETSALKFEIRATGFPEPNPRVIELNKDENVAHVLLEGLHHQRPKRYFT
T3 sequence (P26010 20-723 limits assumed, chain 2 of 2): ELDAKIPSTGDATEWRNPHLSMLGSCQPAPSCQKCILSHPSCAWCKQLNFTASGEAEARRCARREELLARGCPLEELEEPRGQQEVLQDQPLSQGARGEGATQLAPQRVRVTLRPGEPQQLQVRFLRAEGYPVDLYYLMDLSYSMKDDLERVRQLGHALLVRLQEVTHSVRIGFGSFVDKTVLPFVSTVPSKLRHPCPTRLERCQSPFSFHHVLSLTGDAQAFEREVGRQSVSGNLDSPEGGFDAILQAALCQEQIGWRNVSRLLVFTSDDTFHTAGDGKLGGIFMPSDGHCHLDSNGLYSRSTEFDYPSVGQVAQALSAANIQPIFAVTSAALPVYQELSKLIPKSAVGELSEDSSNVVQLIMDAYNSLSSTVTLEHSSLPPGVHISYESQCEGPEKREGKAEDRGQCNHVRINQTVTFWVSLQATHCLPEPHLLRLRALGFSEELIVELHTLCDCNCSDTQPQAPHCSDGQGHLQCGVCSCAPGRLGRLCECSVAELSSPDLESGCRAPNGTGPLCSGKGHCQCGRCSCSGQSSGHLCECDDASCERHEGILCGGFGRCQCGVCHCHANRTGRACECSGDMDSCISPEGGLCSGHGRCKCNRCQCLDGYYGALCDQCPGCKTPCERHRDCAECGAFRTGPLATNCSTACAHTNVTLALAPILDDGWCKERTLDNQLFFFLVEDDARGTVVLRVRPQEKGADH
Procedure: (§2) Following a stabilization period in running buffer, antibodies previously diluted to 1-1.5 μg/mL were captured on the chip for 30 seconds at a flow rate of 10 μL/min. Subsequently, recombinant human α4β7 integrin was prepared at concentrations of 1.563 nM, 3.125 nM, 6.25 nM, 12.5 nM, 25 nM, 50 nM and 100 nM and injected at a flow rate of 30 μL/min for 180 seconds followed by a dissociation phase with just running buffer at a flow rate of 30 μL/min for 1200 seconds. Samples were injected in a multi-cycle manner over freshly captured mAb, by regenerating the capture surfaces with injection of 10 mM Glycine, pH 1.5. The data was processed and analyzed with SPR analysis software, where sensorgrams were fit to a 1:1 binding model to determine the apparent association (ka) and dissociation rate constants (kd). Their ratio provided the apparent equilibrium dissociation constant or affinity constant (KD=kd/ka).

[5] = target: T3, recombinant human α4β7 integrin; assay: SPR, antibody captured on anti-human Fc CM5 chip, recombinant human α4β7 integrin as analyte, 25 °C, 1:1 model; apparent KD
Procedure: as §2

T1 sequence (P13612 34-1032 limits assumed, chain 1 of 2): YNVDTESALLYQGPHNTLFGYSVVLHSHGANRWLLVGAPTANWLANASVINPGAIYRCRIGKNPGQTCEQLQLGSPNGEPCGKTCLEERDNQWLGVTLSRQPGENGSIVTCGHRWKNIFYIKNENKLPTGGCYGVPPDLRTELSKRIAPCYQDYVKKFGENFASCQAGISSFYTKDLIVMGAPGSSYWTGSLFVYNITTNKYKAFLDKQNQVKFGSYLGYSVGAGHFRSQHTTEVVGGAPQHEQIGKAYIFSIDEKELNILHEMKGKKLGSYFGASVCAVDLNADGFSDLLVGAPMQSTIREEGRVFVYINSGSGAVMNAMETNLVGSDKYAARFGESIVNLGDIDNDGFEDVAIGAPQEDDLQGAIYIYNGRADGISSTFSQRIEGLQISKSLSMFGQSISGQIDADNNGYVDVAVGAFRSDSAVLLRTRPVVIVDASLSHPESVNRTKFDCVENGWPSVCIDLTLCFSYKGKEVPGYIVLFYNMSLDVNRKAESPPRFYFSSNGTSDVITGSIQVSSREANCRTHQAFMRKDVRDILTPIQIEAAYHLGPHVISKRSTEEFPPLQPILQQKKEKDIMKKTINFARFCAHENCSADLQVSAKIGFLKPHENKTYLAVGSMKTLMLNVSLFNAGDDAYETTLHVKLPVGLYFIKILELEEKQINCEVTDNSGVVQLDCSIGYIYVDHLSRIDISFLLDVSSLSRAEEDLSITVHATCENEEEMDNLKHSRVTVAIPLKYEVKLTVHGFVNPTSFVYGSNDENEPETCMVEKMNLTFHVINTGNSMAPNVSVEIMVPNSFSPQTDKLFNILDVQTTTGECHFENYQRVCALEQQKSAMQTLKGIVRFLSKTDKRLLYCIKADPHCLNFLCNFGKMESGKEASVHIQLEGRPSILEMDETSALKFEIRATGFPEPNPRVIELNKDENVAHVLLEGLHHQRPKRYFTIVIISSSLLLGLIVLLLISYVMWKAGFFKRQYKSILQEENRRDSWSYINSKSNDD
T1 sequence (P26010 20-798 limits assumed, chain 2 of 2): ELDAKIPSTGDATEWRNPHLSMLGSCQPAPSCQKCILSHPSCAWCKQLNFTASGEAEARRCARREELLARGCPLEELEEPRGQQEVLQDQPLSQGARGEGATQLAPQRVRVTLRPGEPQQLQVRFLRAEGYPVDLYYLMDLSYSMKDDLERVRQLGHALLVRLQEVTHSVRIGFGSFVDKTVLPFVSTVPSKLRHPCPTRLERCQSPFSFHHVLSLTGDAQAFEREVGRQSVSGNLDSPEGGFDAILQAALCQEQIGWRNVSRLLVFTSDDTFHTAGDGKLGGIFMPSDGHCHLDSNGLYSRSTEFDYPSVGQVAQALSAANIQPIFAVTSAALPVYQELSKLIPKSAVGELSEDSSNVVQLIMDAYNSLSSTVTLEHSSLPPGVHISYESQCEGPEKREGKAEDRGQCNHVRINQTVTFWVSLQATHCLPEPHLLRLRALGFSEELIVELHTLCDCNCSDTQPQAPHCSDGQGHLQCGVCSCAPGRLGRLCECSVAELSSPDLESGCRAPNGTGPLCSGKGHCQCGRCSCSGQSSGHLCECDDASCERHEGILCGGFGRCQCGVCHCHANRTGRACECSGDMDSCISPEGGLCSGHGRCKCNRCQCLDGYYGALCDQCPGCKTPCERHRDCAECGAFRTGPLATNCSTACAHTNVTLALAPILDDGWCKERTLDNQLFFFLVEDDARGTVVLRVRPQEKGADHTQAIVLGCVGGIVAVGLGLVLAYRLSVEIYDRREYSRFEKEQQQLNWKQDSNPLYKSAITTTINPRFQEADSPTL
T2 sequence (P13612 34-1032 limits assumed, chain 1 of 2): as the sequence (P13612 34-1032 limits assumed, chain 1 of 2) above
T2 sequence (P05556 21-798 limits assumed, chain 2 of 2): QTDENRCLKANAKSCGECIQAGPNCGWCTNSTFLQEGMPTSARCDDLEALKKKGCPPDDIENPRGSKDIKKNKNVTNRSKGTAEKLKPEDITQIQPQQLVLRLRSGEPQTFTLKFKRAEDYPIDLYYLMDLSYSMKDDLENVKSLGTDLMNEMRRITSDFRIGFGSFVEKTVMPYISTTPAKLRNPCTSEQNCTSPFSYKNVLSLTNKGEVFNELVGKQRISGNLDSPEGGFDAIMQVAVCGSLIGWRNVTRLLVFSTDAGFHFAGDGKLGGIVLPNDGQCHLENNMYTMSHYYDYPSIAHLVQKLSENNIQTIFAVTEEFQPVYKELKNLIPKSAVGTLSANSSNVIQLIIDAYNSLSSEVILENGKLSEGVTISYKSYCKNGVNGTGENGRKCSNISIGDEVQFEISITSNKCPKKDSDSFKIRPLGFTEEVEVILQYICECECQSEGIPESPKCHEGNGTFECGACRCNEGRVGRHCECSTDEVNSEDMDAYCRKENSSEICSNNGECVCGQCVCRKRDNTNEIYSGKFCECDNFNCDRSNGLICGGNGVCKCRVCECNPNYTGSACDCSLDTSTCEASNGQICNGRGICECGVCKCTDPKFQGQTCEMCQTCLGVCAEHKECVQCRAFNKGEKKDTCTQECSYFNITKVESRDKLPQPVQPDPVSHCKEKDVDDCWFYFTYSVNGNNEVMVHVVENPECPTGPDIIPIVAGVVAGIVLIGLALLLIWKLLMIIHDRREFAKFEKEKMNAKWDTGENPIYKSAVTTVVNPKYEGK

Binder	MAdCAM-1 Adhesion Inhibition IC50 [1] [nM]	binding result [2]	EC50 [3] [nM]	koff [4] [s⁻¹]	kon [4] [M⁻¹ s⁻¹]	Kd [5] [nM]
Antibody 1 (antibody, V domains shown, It has a human Fc: captured by anti-human Fc in SPR, detected by anti-human IgG in FACS) VH: EVQLVQSGAEVKKPGSSVKVSCKASGGTFTSYWMHWVRQAPGQGLEWMGEIDPSESNTNYNQKFKGRATITADISTSTAYMELSSLRSEDTAVYYCARGGYDGWDYAIDYWGQGTLVTVSS VL: DVVMTQTPLSLPVTPGQPASISCRSSQSLAKSYGNTYLSWYLQKPGQSPQLLIYGISNRFSGVPDRFSGSGSGTDFTLKISRVEAEDVGVYYCLQGTHQPYTFGQGTKLEIK	0.087	no binding (tested: 100 nM (highest concentration tested))	0.2	0.000466	68500	6.79
Antibody 2 (antibody, V domains shown, It has a human Fc: captured by anti-human Fc in SPR, detected by anti-human IgG in FACS) VH: EVQLVESGGGVVQPGRSLRLSCAASGYTFTSYWMHWVRQAPGKGLEWIGEIDPSESNTNYNQKFKGRATISVDNSKNTAYLQMSSLRAEDTAVYYCARGGYDGWDYAIDYWGQGTLVTVSS VL: DVVMTQTPLSLPVTPGQPASISCRSSQSLAKSYGNTYLSWYLQKPGQSPQLLIYGISNRFSGVPDRFSGSGSGTDFTLKISRVEAEDVGVYYCLQGTHQPYTFGQGTKLEIK	0.15	no binding (tested: 100 nM (highest concentration tested))	0.27	0.000118	56400	2.1
